Measurements reported in the supplement of paper PMC5998384.

Assays:
HeLa Kyoto [1] = test: solubility in G1/S (NP-40 vs SDS abundance) (log2 ratio); higher = more soluble; details: cell cycle stage: G1/S
HeLa Kyoto [2] = test: melting temperature (median over replicates), in situ; higher = more thermally stable
HeLa Kyoto [3] = test: solubility change mitosis vs G1/S (difference of NP-40 vs SDS log2 ratios) (log2 ratio difference); higher = more soluble in mitosis
HeLa Kyoto [4] = test: thermal stability score vs G1/S (z-score of summed log2 fold changes over temperatures); higher = more thermally stable than in G1/S
[5] = cell cycle stage: early G1 (4.5 h after nocodazole release)
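For melting temperature (median over replicates), in situ in this document: HeLa Kyoto cells synchronized by double thymidine or nocodazole block, proteins quantified by TMT10plex mass spectrometry, three independent biological replicates.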
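For solubility change mitosis vs G1/S (difference of NP-40 vs SDS log2 ratios) in this document: synchronized HeLa Kyoto cells (double thymidine block for G1/S, nocodazole release for mitosis), protein amounts in NP-40 versus SDS lysates quantified by mass spectrometry, three biological replicates.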
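For solubility in G1/S (NP-40 vs SDS abundance) in this document: HeLa Kyoto cells arrested at G1/S by double thymidine block, proteins quantified by TMT10plex mass spectrometry in mild NP-40 versus SDS extracts, three biological replicates.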
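For thermal stability score vs G1/S (z-score of summed log2 fold changes over temperatures) in this document: synchronized HeLa Kyoto cells, proteins quantified by TMT10plex mass spectrometry, three biological replicates, mitosis taken 0.5 h after nocodazole release, G1/S directly after double thymidine block.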

MAASMARRLWPLLTRRGFRPRGGCISNDSPRRSFTTEKRNRNLLYEYAREGYSALPQLDIERFCACPEEAAHALELRKGELRSADLPAIISTWQELRQLQEQIRSLEEEKAAVTEAVRALLANQDSGEVQQDPKYQGLRARGREIRKELVHLYPREAQLEEQFYLQALKLPNQTHPDVPVGDESQARVLHMVGDKPVFSFQPRGHLEIGEKLDIIRQKRLSHVSGHRSYYLRGAGALLQHGLVNFTFNKLLRRGFTPMTVPDLLRGAVFEGCGMTPNANPSQIYNIDPARFKDLNLAGTAEVGLAGYFMDHTVAFRDLPVRMVCSSTCYRAETNTGQEPRGLYRVHHFTKVEMFGVTGPGLEQSSQLLEEFLSLQMEILTELGLHFRVLDMPTQELGLPAYRKFDIEAWMPGRGRFGEVTSASNCTDFQSRRLHIMFQTEAGELQFAHTVNATACAVPRLLIALLESNQQKDGSVLVPPALQSYLGTDRITAPTHVPLQYIGPNQPRKPGLPGQPAVS [SARS2]
solubility in G1/S (log2) (HeLa Kyoto [1]): 0.265
melting temperature (HeLa Kyoto [2]; cell cycle stage: G1/S): 51.5 °C
melting temperature (HeLa Kyoto [2]; cell cycle stage: mitosis): 51.4 °C
solubility change mitosis (log2) (HeLa Kyoto [3]): -0.148
thermal stability score (HeLa Kyoto [4]; [5]): 2.24
thermal stability score (HeLa Kyoto [4]; cell cycle stage: mitosis): 1.72

MAASQTSQTVASHVPFADLCSTLERIQKSKGRAEKIRHFREFLDSWRKFHDALHKNHKDVTDSFYPAMRLILPQLERERMAYGIKETMLAKLYIELLNLPRDGKDALKLLNYRTPTGTHGDAGDFAMIAYFVLKPRCLQKGSLTIQQVNDLLDSIASNNSAKRKDLIKKSLLQLITQSSALEQKWLIRMIIKDLKLGVSQQTIFSVFHNDAAELHNVTTDLEKVCRQLHDPSVGLSDISITLFSAFKPMLAAIADIEHIEKDMKHQSFYIETKLDGERMQMHKDGDVYKYFSRNGYNYTDQFGASPTEGSLTPFIHNAFKADIQICILDGEMMAYNPNTQTFMQKGTKFDIKRMVEDSDLQTCYCVFDVLMVNNKKLGHETLRKRYEILSSIFTPIPGRIEIVQKTQAHTKNEVIDALNEAIDKREEGIMVKQPLSIYKPDKRGEGWLKIKPEYVSGLMDELDILIVGGYWGKGSRGGMMSHFLCAVAEKPPPGEKPSVFHTLSRVGSGCTMKELYDLGLKLAKYWKPFHRKAPPSSILCGTEKPEVYIEPCNSVIVQIKAAEIVPSDMYKTGCTLRFPRIEKIRDDKEWHECMTLDDLEQLRGKASGKLASKHLYIGGDDEPQEKKRKAAPKMKKVIGIIEHLKAPNLTNVNKISNIFEDVEFCVMSGTDSQPKPDLENRIAEFGGYIVQNPGPDTYCVIAGSENIRVKNIILSNKHDVVKPAWLLECFKTKSFVPWQPRFMIHMCPSTKEHFAREYDCYGDSYFIDTDLNQLKEVFSGIKNSNEQTPEEMASLIADLEYRYSWDCSPLSMFRRHTVYLDSYAVINDLSTKNEGTRLAIKALELRFHGAKVVSCLAEGVSHVIIGEDHSRVADFKAFRRTFKRKFKILKESWVTDSIDKCELQEENQYLI [LIG4]
solubility in G1/S (log2) (HeLa Kyoto [1]): -0.0399
melting temperature (HeLa Kyoto [2]; cell cycle stage: G1/S): 48.4 °C
melting temperature (HeLa Kyoto [2]; cell cycle stage: mitosis): 49.6 °C
solubility change mitosis (log2) (HeLa Kyoto [3]): -0.329
thermal stability score (HeLa Kyoto [4]; [5]): 0.0186
thermal stability score (HeLa Kyoto [4]; cell cycle stage: mitosis): 0.758

MAASSLEQKLSRLEAKLKQENREARRRIDLNLDISPQRPRPTLQLPLANDGGSRSPSSESSPQHPTPPARPRHMLGLPSTLFTPRSMESIEIDQKLQEIMKQTGYLTIGGQRYQAEINDLENLGEMGSGTCGQVWKMRFRKTGHVIAVKQMRRSGNKEENKRILMDLDVVLKSHDCPYIVQCFGTFITNTDVFIAMELMGTCAEKLKKRMQGPIPERILGKMTVAIVKALYYLKEKHGVIHRDVKPSNILLDERGQIKLCDFGISGRLVDSKAKTRSAGCAAYMAPERIDPPDPTKPDYDIRADVWSLGISLVELATGQFPYKNCKTDFEVLTKVLQEEPPLLPGHMGFSGDFQSFVKDCLTKDHRKRPKYNKLLEHSFIKRYETLEVDVASWFKDVMAKTESPRTSGVLSQPHLPFFR [MAP2K7]
solubility in G1/S (log2) (HeLa Kyoto [1]): 0.237
melting temperature (HeLa Kyoto [2]; cell cycle stage: G1/S): 49.9 °C
melting temperature (HeLa Kyoto [2]; cell cycle stage: mitosis): 50 °C
solubility change mitosis (log2) (HeLa Kyoto [3]): 0.0421
thermal stability score (HeLa Kyoto [4]; [5]): 1.35
thermal stability score (HeLa Kyoto [4]; cell cycle stage: mitosis): 1.39

MAASVAAAARRLRRAIRRSPAWRGLSHRPLSSEPPAAKASAVRAAFLNFFRDRHGHRLVPSASVRPRGDPSLLFVNAGMNQFKPIFLGTVDPRSEMAGFRRVANSQKCVRAGGHHNDLEDVGRDLSHHTFFEMLGNWAFGGEYFKEEACNMAWELLTQVYGIPEERLWISYFDGDPKAGLDPDLETRDIWLSLGVPASRVLSFGPQENFWEMGDTGPCGPCTEIHYDLAGGVGAPQLVELWNLVFMQHNREADGSLQPLPQRHVDTGMGLERLVAVLQGKHSTYDTDLFSPLLNAIQQGCRAPPYLGRVGVADEGRTDTAYRVVADHIRTLSVCISDGIFPGMSGPPLVLRRILRRAVRFSMEILKAPPGFLGSLVPVVVETLGDAYPELQRNSAQIANLVSEDEAAFLASLERGRRIIDRTLRTLGPSDMFPAEVAWSLSLCGDLGLPLDMVELMLEEKGVQLDSAGLERLAQEEAQHRARQAEPVQKQGLWLDVHALGELQRQGVPPTDDSPKYNYSLRPSGSYEFGTCEAQVLQLYTEDGTAVASVGKGQRCGLLLDRTNFYAEQGGQASDRGYLVRAGQEDVLFPVARAQVCGGFILHEAVAPECLRLGDQVQLHVDEAWRLGCMAKHTATHLLNWALRQTLGPGTEQQGSHLNPEQLRLDVTTQTPLTPEQLRAVENTVQEAVGQDEAVYMEEVPLALTAQVPGLRSLDEVYPDPVRVVSVGVPVAHALDPASQAALQTSVELCCGTHLLRTGAVGDLVIIGDRQLSKGTTRLLAVTGEQAQQARELGQSLAQEVKAATERLSLGSRDVAEALRLSKDIGRLIEAVETAVMPQWQRRELLATVKMLQRRANTAIRKLQMGQAAKKTQELLERHSKGPLIVDTVSAESLSVLVKVVRQLCEQAPSTSVLLLSPQPMGKVLCACQVAQGAMPTFTAEAWALAVCSHMGGKAWGSRVVAQGTGSTTDLEAALSIAQTYALSQL [AARS2]
solubility in G1/S (log2) (HeLa Kyoto [1]): -0.0312
melting temperature (HeLa Kyoto [2]; cell cycle stage: G1/S): 49.9 °C
melting temperature (HeLa Kyoto [2]; cell cycle stage: mitosis): 50 °C
solubility change mitosis (log2) (HeLa Kyoto [3]): -0.0878
thermal stability score (HeLa Kyoto [4]; [5]): -0.609
thermal stability score (HeLa Kyoto [4]; cell cycle stage: mitosis): 0.833

MAASVVCRAATAGAQVLLRARRSPALLRTPALRSTATFAQALQFVPETQVSLLDNGLRVASEQSSQPTCTVGVWIDVGSRFETEKNNGAGYFLEHLAFKGTKNRPGSALEKEVESMGAHLNAYSTREHTAYYIKALSKDLPKAVELLGDIVQNCSLEDSQIEKERDVILREMQENDASMRDVVFNYLHATAFQGTPLAQAVEGPSENVRKLSRADLTEYLSTHYKAPRMVLAAAGGVEHQQLLDLAQKHLGGIPWTYAEDAVPTLTPCRFTGSEIRHRDDALPFAHVAIAVEGPGWASPDNVALQVANAIIGHYDCTYGGGVHLSSPLASGAVANKLCQSFQTFSICYAETGLLGAHFVCDRMKIDDMMFVLQGQWMRLCTSATESEVARGKNILRNALVSHLDGTTPVCEDIGRSLLTYGRRIPLAEWESRIAEVDASVVREICSKYIYDQCPAVAGYGPIEQLPDYNRIRSGMFWLRF [UQCRC1]
solubility in G1/S (log2) (HeLa Kyoto [1]): 0.324
melting temperature (HeLa Kyoto [2]; cell cycle stage: G1/S): 55.3 °C
melting temperature (HeLa Kyoto [2]; cell cycle stage: mitosis): 54.2 °C
solubility change mitosis (log2) (HeLa Kyoto [3]): -0.0237
thermal stability score (HeLa Kyoto [4]; [5]): -0.504
thermal stability score (HeLa Kyoto [4]; cell cycle stage: mitosis): -3.84

MAATAAAVVAEEDTELRDLLVQTLENSGVLNRIKAELRAAVFLALEEQEKVENKTPLVNESLKKFLNTKDGRLVASLVAEFLQFFNLDFTLAVFQPETSTLQGLEGRENLARDLGIIEAEGTVGGPLLLEVIRRCQQKEKGPTTGEGALDLSDVHSPPKSPEGKTSAQTTPSKIPRYKGQGKKKTSGQKAGDKKANDEANQSDTSVSLSEPKSKSSLHLLSHETKIGSFLSNRTLDGKDKAGLCPDEDDMEGDSFFDDPIPKPEKTYGLRKEPRKQAGSLASLSDAPPLKSGLSSLAGAPSLKDSESKRGNTVLKDLKLISDKIGSLGLGTGEDDDYVDDFNSTSHRSEKSEISIGEEIEEDLSVEIDDINTSDKLDDLTQDLTVSQLSDVADYLEDVA [FGFR1OP]
solubility in G1/S (log2) (HeLa Kyoto [1]): 0.156
melting temperature (HeLa Kyoto [2]; cell cycle stage: G1/S): 52 °C
melting temperature (HeLa Kyoto [2]; cell cycle stage: mitosis): 52.4 °C
solubility change mitosis (log2) (HeLa Kyoto [3]): -0.0261
thermal stability score (HeLa Kyoto [4]; [5]): -0.228
thermal stability score (HeLa Kyoto [4]; cell cycle stage: mitosis): -0.703

MAATAAEAVASGSGEPREEAGALGPAWDESQLRSYSFPTRPIPRLSQSDPRAEELIENEEPVVLTDTNLVYPALKWDLEYLQENIGNGDFSVYSASTHKFLYYDEKKMANFQNFKPRSNREEMKFHEFVEKLQDIQQRGGEERLYLQQTLNDTVGRKIVMDFLGFNWNWINKQQGKRGWGQLTSNLLLIGMEGNVTPAHYDEQQNFFAQIKGYKRCILFPPDQFECLYPYPVHHPCDRQSQVDFDNPDYERFPNFQNVVGYETVVGPGDVLYIPMYWWHHIESLLNGGITITVNFWYKGAPTPKRIEYPLKAHQKVAIMRNIEKMLGEALGNPQEVGPLLNTMIKGRYN [HIF1AN]
solubility in G1/S (log2) (HeLa Kyoto [1]): 0.273
melting temperature (HeLa Kyoto [2]; cell cycle stage: G1/S): 52.3 °C
melting temperature (HeLa Kyoto [2]; cell cycle stage: mitosis): 51.7 °C
solubility change mitosis (log2) (HeLa Kyoto [3]): -0.0585
thermal stability score (HeLa Kyoto [4]; [5]): 0.637
thermal stability score (HeLa Kyoto [4]; cell cycle stage: mitosis): 1.68

MAATALLEAGLARVLFYPTLLYTLFRGKVPGRAHRDWYHRIDPTVLLGALPLRSLTRQLVQDENVRGVITMNEEYETRFLCNSSQEWKRLGVEQLRLSTVDMTGIPTLDNLQKGVQFALKYQSLGQCVYVHCKAGRSRSATMVAAYLIQVHKWSPEEAVRAIAKIRSYIHIRPGQLDVLKEFHKQITARATKDGTFVISKT [PTPMT1]
solubility in G1/S (log2) (HeLa Kyoto [1]): -0.268
melting temperature (HeLa Kyoto [2]; cell cycle stage: G1/S): 51.8 °C
melting temperature (HeLa Kyoto [2]; cell cycle stage: mitosis): 51.2 °C
solubility change mitosis (log2) (HeLa Kyoto [3]): -0.0676
thermal stability score (HeLa Kyoto [4]; [5]): -0.395
thermal stability score (HeLa Kyoto [4]; cell cycle stage: mitosis): -0.764
